Data: patent CN113480658A (SHENZHEN INNOVA NANOBODI CO LTD, dated 2021)
Positions count from the first letter of the chain named. Blank lines part the entries; values can stand above or below the binder they belong to.

Legend:
[1] = biological target: T1, 人附睾蛋白(HE4) (human, UniProt Q14508 31-124); experiment: additive ELISA on HE4, 1G8 alone
T1 construct: also called HE4抗原; 抗原
T1 sequence (looked up): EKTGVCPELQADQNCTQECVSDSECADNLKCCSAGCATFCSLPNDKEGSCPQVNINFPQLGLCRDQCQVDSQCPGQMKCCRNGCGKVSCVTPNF

[2] = biological target: T1, 人附睾蛋白(HE4); experiment: additive ELISA on HE4, 1D9 alone
[3] = biological target: T1, 人附睾蛋白(HE4); experiment: SPR, Biacore T100, 1:1 binding fit

ELISA reading (2nd抗体) [1]: 0.481
B1: 纳米抗体1G8 (VHH)
VHH: QVQLQESGGGLAQTGGSLRLSCVASGRTLDRYAIGWFRQAPGKEREFVAAISMSGTMTDYTDSVKGRFTISRDNAKNTVYLQMNSLKPDDTAVYCCAAGGRRGWGRALFAYDYWGQGTQVTVSS

ELISA reading (1st抗体) [2]: 0.286 | Kd [3]: 11.9 pM
B2: 纳米抗体1D9 (抗HE4单价纳米抗体) (VHH)
VHH: B1 VHH with A12V, T14P, V23A, R27P, T28R, L29F, D30S, R31S, A33G, I34M
notes: CDR1 26-33, CDR2 51-58, CDR3 97-113); Expressed in E. coli from pMES4 and purified

Kd [3]: 6.9 pM
B3: 抗HE4二价纳米抗体1D9-LHC (VHH)
VHH: B1 VHH with A12V, T14P, V23A, R27P, T28R, L29F, D30S, R31S, A33G, I34M
